In PMC8591539 (The EMBO Journal, 2021):

Molecular target: RBX1 (human, UniProt P62877 1-108)
Assay: cryo-EM structure

B1: DDB1- and CUL4-associated factor 1 (DCAF1), full length, wild type (natural protein)
chain: not shown
B1: binds.
